According to paper PMC3668366:

B1: Hetero (CGAT|GCAA) unmethylated (dsDNA)
DNA 1: GTCAGTCAGACGATGCAATATAGGTCAG
DNA 2: CTGACCTATATTGCATCGTCTGACTGAC
B2: 10-mer-A (M) (dsDNA)
DNA 1: GTCAGTCAGATTGCGCAATATAGGTCAG
DNA 2: CTGACCTATATTGCGCAATCTGACTGAC
modifications: 5mC at position 14 of each strand

Key:
[1] = molecular target: CEBPB B-ZIP domain;ATF4 B-ZIP domain (mouse;mouse, UniProt P28033;Q06507 222-285;276-339, |); assay: EMSA
CEBPB B-ZIP domain = CEBPB B-ZIP domain (mouse, UniProt P28033 222-285); assay: EMSA
Chain of CEBPB B-ZIP domain (P28033 222-285): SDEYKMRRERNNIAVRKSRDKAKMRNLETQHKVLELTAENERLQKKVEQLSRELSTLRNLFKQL

Chain of CEBPB B-ZIP domain;ATF4 B-ZIP domain (P28033 222-285, chain 1 of 2): as the sequence (P28033 222-285) above
Chain of CEBPB B-ZIP domain;ATF4 B-ZIP domain (Q06507 276-339, chain 2 of 2): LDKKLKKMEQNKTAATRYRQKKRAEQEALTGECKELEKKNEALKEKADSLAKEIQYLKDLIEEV

| Binder | binding signal [1] | apparent K (half saturation) (CEBPB B-ZIP domain) [nM] |
| --- | --- | --- |
| B1 | 10 fold weaker than methylated N2 | – |
| B2 | – | ~5 |
